Measurements published in the supplement of paper PMC7125110.
± gives the standard error. Variants at the floor of the assay were thinned out.

B1: glmS ribozyme (parent)
chain: AUAAAAGCGCCAGAACUACAGAAAUGUAGUUGACGAGGAGGAGGUUUAUCGAAUUUUCGGCGGAUGCCUCCAAA

Legend:
Conditions in all cases: with glucosamine-6-phosphate
glucosamine-6-phosphate [1] = variants of: B1; assay: self-cleavage kobs at 40 uM GlcN6P; higher = faster cleavage; RNA array
Outline: (§1)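 In situ transcription by E. coli RNA polymerase produced barcoded ribozyme variants on sequenced MiSeq chips, and a hybridised Cy3 probe tracked them at 37 °C. Glucosamine-6-phosphate was flowed in at 40 μM to 10 mM in HEPES/KCl/Mg(OAc)2 buffer. kcat and KM were taken from weighted Michaelis–Menten fits of kobs values from exponential decay fits.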

glucosamine-6-phosphate [2] = variants of: B1; assay: self-cleavage kobs at 10000 uM GlcN6P; higher = faster cleavage; RNA array
Outline: as §1

glucosamine-6-phosphate [3] = variants of: B1; assay: self-cleavage kobs at 160 uM GlcN6P; higher = faster cleavage; RNA array
Outline: as §1

glucosamine-6-phosphate [4] = variants of: B1; assay: self-cleavage kobs at 640 uM GlcN6P; higher = faster cleavage; RNA array
Outline: as §1

glucosamine-6-phosphate [5] = variants of: B1; assay: self-cleavage kobs at 2500 uM GlcN6P; higher = faster cleavage; RNA array
Outline: as §1

Variant	self-cleavage kobs at 40 uM GlcN6P (glucosamine-6-phosphate [1])	self-cleavage kobs at 10000 uM GlcN6P (glucosamine-6-phosphate [2])	self-cleavage kobs at 160 uM GlcN6P (glucosamine-6-phosphate [3])	self-cleavage kobs at 640 uM GlcN6P (glucosamine-6-phosphate [4])	self-cleavage kobs at 2500 uM GlcN6P (glucosamine-6-phosphate [5])
U49C C61G	< 1e-05 s⁻¹	< 1e-05 s⁻¹			
C16U U55G	0.000446 ± 7.1e-05 s⁻¹	0.0464 ± 0.01 s⁻¹	0.00102 ± 0.00026 s⁻¹	0.00467 ± 0.0013 s⁻¹	0.00554 ± 0.0013 s⁻¹
A14G A15G G66U	0.0002 ± 4.3e-05 s⁻¹	0.0089 ± 0.0018 s⁻¹			0.00252 ± 0.0011 s⁻¹
G13C A64C	< 1e-05 s⁻¹	< 1e-05 s⁻¹	< 1e-05 s⁻¹		< 1e-05 s⁻¹
C10G G29U U31C A36U C68A C71U	< 1e-05 s⁻¹				
A6C A14C A36C G37C G40U G66C C67G	< 1e-05 s⁻¹			< 1e-05 s⁻¹	
U54A G60C	< 1e-05 s⁻¹	< 1e-05 s⁻¹		< 1e-05 s⁻¹	
G9U A64G	< 1e-05 s⁻¹	< 1e-05 s⁻¹	< 1e-05 s⁻¹		
G13A A33C C50A C71U	< 1e-05 s⁻¹				< 1e-05 s⁻¹
U31A G32U A36U G59A	< 1e-05 s⁻¹	< 1e-05 s⁻¹			
A14G C50U G66U C68A	5.56e-05 ± 2.7e-05 s⁻¹	4.35e-05 ± 1.8e-05 s⁻¹			
C50G C68U	0.000168 ± 2.2e-05 s⁻¹	0.000128 ± 1.3e-05 s⁻¹	0.000233 ± 4.2e-05 s⁻¹	0.00021 ± 2.4e-05 s⁻¹	0.000189 ± 2e-05 s⁻¹
A14U C34A G35C U45A C67U	< 1e-05 s⁻¹				
G37C C50U C70A	0.00229 ± 0.00095 s⁻¹				
C50G C58U	0.000198 ± 9.7e-05 s⁻¹		9.14e-05 ± 2.2e-05 s⁻¹		0.000443 ± 0.00019 s⁻¹
C50G C58A	5.49e-05 ± 1.6e-05 s⁻¹	3.98e-05 ± 1.7e-05 s⁻¹	0.000151 ± 4.4e-05 s⁻¹	0.000175 ± 4.4e-05 s⁻¹	0.000194 ± 3.7e-05 s⁻¹
U47C C61U G63U	< 1e-05 s⁻¹				
A6U A36C C50U A64G	< 1e-05 s⁻¹				
C8G U54C	< 1e-05 s⁻¹	< 1e-05 s⁻¹	< 1e-05 s⁻¹	< 1e-05 s⁻¹	< 1e-05 s⁻¹
U56C C58U G60U	< 1e-05 s⁻¹		< 1e-05 s⁻¹		< 1e-05 s⁻¹
U30G A39G	0.000352 ± 8.4e-05 s⁻¹	0.0183 ± 0.007 s⁻¹	0.000654 ± 0.00021 s⁻¹	0.00235 ± 0.00063 s⁻¹	0.00681 ± 0.0014 s⁻¹
U46A G60U	< 1e-05 s⁻¹		< 1e-05 s⁻¹		< 1e-05 s⁻¹
G32C G43C A48G	< 1e-05 s⁻¹				
G7A C11G A12U A42C G44A G51C A53U C71U	< 1e-05 s⁻¹	< 1e-05 s⁻¹			
A6C A15U A33U U69G	< 1e-05 s⁻¹				

Variant	self-cleavage kobs at 40 uM GlcN6P (glucosamine-6-phosphate [1])	self-cleavage kobs at 10000 uM GlcN6P (glucosamine-6-phosphate [2])	self-cleavage kobs at 160 uM GlcN6P (glucosamine-6-phosphate [3])	self-cleavage kobs at 640 uM GlcN6P (glucosamine-6-phosphate [4])	self-cleavage kobs at 2500 uM GlcN6P (glucosamine-6-phosphate [5])
A6U A12U G32C A33C C50A	< 1e-05 s⁻¹	< 1e-05 s⁻¹			
U30G A64U	< 1e-05 s⁻¹		< 1e-05 s⁻¹		
G29A C34U	< 1e-05 s⁻¹				
G7C C8G C50G U55A	7.03e-05 ± 2.9e-05 s⁻¹				
A14U U47A	0.000141 ± 1.5e-05 s⁻¹	0.00513 ± 0.00047 s⁻¹	0.000575 ± 0.00028 s⁻¹		
U47G U56A C58U A64G U69A C70A	5.21e-05 ± 2.2e-05 s⁻¹	3.66e-05 ± 1.4e-05 s⁻¹			
A12U A15U A52C	< 1e-05 s⁻¹	< 1e-05 s⁻¹			
G13U U49A C58A C68U C70U	< 1e-05 s⁻¹				
G7U C11U	< 1e-05 s⁻¹	< 1e-05 s⁻¹	< 1e-05 s⁻¹	< 1e-05 s⁻¹	< 1e-05 s⁻¹
U45A G62U	< 1e-05 s⁻¹		< 1e-05 s⁻¹	< 1e-05 s⁻¹	< 1e-05 s⁻¹
C61U C67G C68G	4.73e-05 ± 1.6e-05 s⁻¹				
C16A G29U U30G U49G C70U	< 1e-05 s⁻¹				
A15U G38C G66U C67U	< 1e-05 s⁻¹	< 1e-05 s⁻¹			
G9A G63C	< 1e-05 s⁻¹	< 1e-05 s⁻¹			
A42G C67U	0.000328 ± 4.2e-05 s⁻¹	0.00807 ± 0.0016 s⁻¹	0.00136 ± 0.00031 s⁻¹	0.00155 ± 0.00035 s⁻¹	0.00245 ± 0.00057 s⁻¹
G59U G63U	< 1e-05 s⁻¹		< 1e-05 s⁻¹	< 1e-05 s⁻¹	< 1e-05 s⁻¹
U47C C58U C71U	< 1e-05 s⁻¹	3.48e-05 ± 1.1e-05 s⁻¹			
G7A A15G G51U C58G A64U C70A	0.000522 ± 0.00019 s⁻¹	0.000462 ± 0.00017 s⁻¹			
U31C G43C	< 1e-05 s⁻¹	< 1e-05 s⁻¹		< 1e-05 s⁻¹	< 1e-05 s⁻¹
G32U A36U G41A	< 1e-05 s⁻¹			< 1e-05 s⁻¹	
A15U A64C	< 1e-05 s⁻¹		< 1e-05 s⁻¹		
G35A G60A G66U C67U U69G	< 1e-05 s⁻¹				< 1e-05 s⁻¹
G40C G51U	< 1e-05 s⁻¹	< 1e-05 s⁻¹	< 1e-05 s⁻¹	< 1e-05 s⁻¹	< 1e-05 s⁻¹
A36U G43A U56A	< 1e-05 s⁻¹	< 1e-05 s⁻¹		< 1e-05 s⁻¹	
C8G U45A	< 1e-05 s⁻¹	< 1e-05 s⁻¹	< 1e-05 s⁻¹	< 1e-05 s⁻¹	

Variant	self-cleavage kobs at 40 uM GlcN6P (glucosamine-6-phosphate [1])	self-cleavage kobs at 10000 uM GlcN6P (glucosamine-6-phosphate [2])	self-cleavage kobs at 160 uM GlcN6P (glucosamine-6-phosphate [3])	self-cleavage kobs at 640 uM GlcN6P (glucosamine-6-phosphate [4])	self-cleavage kobs at 2500 uM GlcN6P (glucosamine-6-phosphate [5])
G9C G37A G60C U65A	< 1e-05 s⁻¹				< 1e-05 s⁻¹
G7U G40A	< 1e-05 s⁻¹				
A14C U49A	< 1e-05 s⁻¹	< 1e-05 s⁻¹		< 1e-05 s⁻¹	
C16A A48G	< 1e-05 s⁻¹	< 1e-05 s⁻¹		< 1e-05 s⁻¹	< 1e-05 s⁻¹
G7A G13U U55C	< 1e-05 s⁻¹	< 1e-05 s⁻¹			
G38U G41C C68G	< 1e-05 s⁻¹	< 1e-05 s⁻¹			
G37U G38A	< 1e-05 s⁻¹	< 1e-05 s⁻¹			
A42G U47G G63U	< 1e-05 s⁻¹				
C34A G44U	< 1e-05 s⁻¹	< 1e-05 s⁻¹	< 1e-05 s⁻¹	< 1e-05 s⁻¹	< 1e-05 s⁻¹
C34A A64G	< 1e-05 s⁻¹		< 1e-05 s⁻¹		< 1e-05 s⁻¹
U54A G63A	< 1e-05 s⁻¹		< 1e-05 s⁻¹	< 1e-05 s⁻¹	
G51A C58A	< 1e-05 s⁻¹	< 1e-05 s⁻¹		< 1e-05 s⁻¹	
C11A G38A G44C	< 1e-05 s⁻¹	< 1e-05 s⁻¹			
G51A U55G	< 1e-05 s⁻¹		< 1e-05 s⁻¹	< 1e-05 s⁻¹	
G7U G43U A52G C68A C70U	< 1e-05 s⁻¹				
A6G C16G G66C	< 1e-05 s⁻¹				
C16U U45C A48U C68U	< 1e-05 s⁻¹				
C11A A15C G43A	< 1e-05 s⁻¹	< 1e-05 s⁻¹			
A12C C34G G40U A52U C61U	< 1e-05 s⁻¹	< 1e-05 s⁻¹			
U30G C50G	0.000146 ± 6.1e-05 s⁻¹		7.58e-05 ± 2.1e-05 s⁻¹	7e-05 ± 2.2e-05 s⁻¹	0.000109 ± 2.3e-05 s⁻¹
A48C A52C	< 1e-05 s⁻¹	< 1e-05 s⁻¹	< 1e-05 s⁻¹	< 1e-05 s⁻¹	< 1e-05 s⁻¹
A42G G59A	< 1e-05 s⁻¹				4.78e-05 ± 2e-05 s⁻¹
A12G G60C	< 1e-05 s⁻¹	< 1e-05 s⁻¹	< 1e-05 s⁻¹	< 1e-05 s⁻¹	< 1e-05 s⁻¹
G9U C10U A36U G51A C70G	< 1e-05 s⁻¹				
G29U G41A C58U	< 1e-05 s⁻¹	< 1e-05 s⁻¹			

Variant	self-cleavage kobs at 40 uM GlcN6P (glucosamine-6-phosphate [1])	self-cleavage kobs at 10000 uM GlcN6P (glucosamine-6-phosphate [2])	self-cleavage kobs at 160 uM GlcN6P (glucosamine-6-phosphate [3])	self-cleavage kobs at 640 uM GlcN6P (glucosamine-6-phosphate [4])	self-cleavage kobs at 2500 uM GlcN6P (glucosamine-6-phosphate [5])
A33G G62A	< 1e-05 s⁻¹	< 1e-05 s⁻¹			
U31G G32C G38U G43U G59A G63A U69A	< 1e-05 s⁻¹				
U56C C61U C70A C71U	< 1e-05 s⁻¹				< 1e-05 s⁻¹
G9U G32A A53C U55G G63U	< 1e-05 s⁻¹				
C16U A36U A64G	< 1e-05 s⁻¹				
U46C G59A	< 1e-05 s⁻¹	4.71e-05 ± 1.4e-05 s⁻¹		< 1e-05 s⁻¹	
A12G A14G A15C U30G	7.29e-05 ± 2e-05 s⁻¹	0.0042 ± 0.00087 s⁻¹			
C10G G29A	< 1e-05 s⁻¹	< 1e-05 s⁻¹		< 1e-05 s⁻¹	
A52G A64U	< 1e-05 s⁻¹		< 1e-05 s⁻¹		
G40U G41U U47G G62U G63U	< 1e-05 s⁻¹	< 1e-05 s⁻¹			
A6G A36C G63A	< 1e-05 s⁻¹	< 1e-05 s⁻¹			
U31G G35C G44U U54A	< 1e-05 s⁻¹	< 1e-05 s⁻¹			< 1e-05 s⁻¹
C16U U49G G59C G62U C67A	< 1e-05 s⁻¹				
G51C C67A	< 1e-05 s⁻¹		< 1e-05 s⁻¹	< 1e-05 s⁻¹	< 1e-05 s⁻¹
C8G A39C U55G G59U	< 1e-05 s⁻¹	< 1e-05 s⁻¹			
C16U G44U U57A C68A	< 1e-05 s⁻¹	< 1e-05 s⁻¹	< 1e-05 s⁻¹	< 1e-05 s⁻¹	< 1e-05 s⁻¹
U45A U47G U57A	< 1e-05 s⁻¹	0.000108 ± 2.3e-05 s⁻¹			
A12C A33U A53U C68A A73C	< 1e-05 s⁻¹				
G43C A64G	< 1e-05 s⁻¹	< 1e-05 s⁻¹	< 1e-05 s⁻¹	< 1e-05 s⁻¹	< 1e-05 s⁻¹
C58U U65G	< 1e-05 s⁻¹		< 1e-05 s⁻¹	< 1e-05 s⁻¹	
G35C U45G	< 1e-05 s⁻¹	< 1e-05 s⁻¹	< 1e-05 s⁻¹		< 1e-05 s⁻¹
A12C U30A G38C C61U	< 1e-05 s⁻¹				< 1e-05 s⁻¹
G13C A39C U47G	< 1e-05 s⁻¹		< 1e-05 s⁻¹		< 1e-05 s⁻¹
G7U U69G	0.000114 ± 2.1e-05 s⁻¹	0.000226 ± 8.9e-05 s⁻¹		0.000299 ± 7e-05 s⁻¹	6.87e-05 ± 1.8e-05 s⁻¹
